Experimental data published in PMC10683472, “Deep Learning-Driven Library Design for the De Novo Discovery of Bioactive Thiopeptides” (ACS Central Science, 2023).

Molecular target: T1, TLR10 (Homo sapiens, UniProt Q9BXR5)
T1 sequence (Q9BXR5 20-576): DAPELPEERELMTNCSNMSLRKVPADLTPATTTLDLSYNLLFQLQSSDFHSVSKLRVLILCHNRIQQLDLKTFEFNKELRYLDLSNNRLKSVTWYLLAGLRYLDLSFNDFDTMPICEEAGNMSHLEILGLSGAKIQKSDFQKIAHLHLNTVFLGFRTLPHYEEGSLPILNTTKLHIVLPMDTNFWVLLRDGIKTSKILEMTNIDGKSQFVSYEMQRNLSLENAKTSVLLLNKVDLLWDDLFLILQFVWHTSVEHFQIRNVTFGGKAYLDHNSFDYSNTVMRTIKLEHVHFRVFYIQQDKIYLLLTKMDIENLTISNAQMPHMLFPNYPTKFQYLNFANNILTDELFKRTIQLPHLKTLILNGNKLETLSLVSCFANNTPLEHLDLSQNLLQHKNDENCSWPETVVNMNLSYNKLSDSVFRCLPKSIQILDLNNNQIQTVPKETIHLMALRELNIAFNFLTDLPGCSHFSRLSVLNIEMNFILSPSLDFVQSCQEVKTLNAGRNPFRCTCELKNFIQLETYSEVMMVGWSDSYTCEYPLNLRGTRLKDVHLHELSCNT
Experiment: mRNA display affinity selection against TLR10, NGS abundance
Assay type: binding
Design: Chimera protein (extracellular domain, amino acid 20-576;); Fc (chimera); purchased R&D system #6619-TR-050
Settings: Top100 selection hits, NGS

Library fraction (TLR10 selection pulldown (+)) | Raw reads (TLR10 selection pulldown (+)) | Library fraction (TLR10 selection pulldown (-)) | Raw reads (TLR10 selection pulldown (-)) | Sequence
0.004 | 409 | 0.001 | 116 | STHIYSKQGIRG
0.00528 | 515 | 0.003 | 351 | TMMFPRLGKVAY
0.00018 | 18 |  |  | SIQFKVLQKLAF
 |  | 0.00131 | 156 | SQFNHAMGWYVN
0.00028 | 27 |  |  | SLEFPHLVIH
 |  | 0.006 | 714 | SITFQTLNKIAY
 |  | 0.00343 | 409 | CESCCYVIDFEF
0.00046 | 45 |  |  | SIKFVFQGKLAI
0.00056 | 55 |  |  | CVLVNNRYLVH
0.0005 | 49 |  |  | SNVIYARQHIIG
 |  | 0.00142 | 169 | CMSFYLQRKIAI
 |  | 0.00658 | 785 | IGLVRVVSS
 |  | 0.00152 | 181 | CVHFCWQRKLAY
 |  | 0.00072 | 86 | AMKLSARYIAF
0.00237 | 231 | 0.00056 | 67 | TYWKACAMSHIP
0.00065 | 63 |  |  | SVSFPLQRKLVF
0.00022 | 21 |  |  | SIEGMHVVIV
0.023 | 2231 | 0.00739 | 882 | GTGLNRYGGINY
 |  | 0.00089 | 106 | IGKTYVASS
0.00031 | 30 |  |  | SIETTNMVLL
 |  | 0.00092 | 110 | IGKVYVHSS
 |  | 0.003 | 343 | SVEVWVNQKIRG
0.005 | 482 | 0.00118 | 141 | SVPFPLQRKLVF

Library fraction (TLR10 selection pulldown (+)) | Raw reads (TLR10 selection pulldown (+)) | Library fraction (TLR10 selection pulldown (-)) | Raw reads (TLR10 selection pulldown (-)) | Sequence
0.020 | 1927 | 0.011 | 1314 | TLHFRRQNKIAY
0.00022 | 21 |  |  | TMHFSNQRKLVF
0.00064 | 62 | 0.00063 | 75 | AQMYPIQNKIAF
0.00557 | 543 | 0.00067 | 80 | RNPYSGNIAI
0.00033 | 32 |  |  | VGYVLVKSS
0.00018 | 18 |  |  | AIYYSRLNKVAF
0.00032 | 31 |  |  | VQLHRWGLRM
0.015 | 1427 | 0.00949 | 1132 | TNPYGGNITM
0.00028 | 27 |  |  | ICFVYVRSS
 |  | 0.00147 | 175 | IGRVCIRSS
 |  | 0.00149 | 178 | SICFASQRLLAF
0.00365 | 356 | 0.003 | 375 | IGSVFIKSS
0.00017 | 17 |  |  | CLGISNRIVVV
0.00258 | 251 | 0.00364 | 434 | VGRVYIKSS
0.143 | 13980 | 0.238 | 28345 | TNPYGGNVGW
 |  | 0.00046 | 55 | SSTVWKLQTICG
0.00021 | 20 |  |  | SILFSIQNKLVL
0.008 | 777 | 0.00125 | 149 | SRTIYRCQSIRG
0.054 | 5293 | 0.012 | 1475 | AVRNKYGGNAAS
0.0006 | 58 |  |  | AVIVWAKQGIKG
0.004 | 389 | 0.00189 | 226 | SIMFALQQKLLF
0.004 | 408 | 0.002 | 248 | SMLVWKGQSIRG

The next lines start with the sequence.

Sequence | Library fraction (TLR10 selection pulldown (+)) | Raw reads (TLR10 selection pulldown (+)) | Library fraction (TLR10 selection pulldown (-)) | Raw reads (TLR10 selection pulldown (-))
SMYFESLNKLAV |  |  | 0.00044 | 52
RMMFHLLNQIAY |  |  | 0.00358 | 427
SFMFFSQRKLAF | 0.00034 | 33 |  | 
WPGSMARDSIS | 0.013 | 1282 | 0.018 | 2179
GCLHGNVPVYY | 0.00224 | 218 | 0.00272 | 324
TILFPLQRRLVV |  |  | 0.0018 | 215
SITFPMQRHIAF |  |  | 0.00112 | 133
CMIFHTQLKIAF | 0.00053 | 52 | 0.004 | 470
SVIFNLLRQVAY | 0.00017 | 17 |  | 
STIVFTFQCIKG | 0.012 | 1142 | 0.008 | 919
ASFVIGQLLVN |  |  | 0.00055 | 66
SFTFALQRRIAY |  |  | 0.0006 | 71
SIEFRRMRAIAY |  |  | 0.00067 | 80
SPIHFRSVL | 0.00047 | 46 |  | 
AVEFRLQRAIAY | 0.00163 | 159 | 0.00093 | 111
AKLIYRTQGIMG | 0.00211 | 206 |  | 
TCFSHYLIM |  |  | 0.002 | 237
IGLVRIKSS | 0.0012 | 117 | 0.00155 | 185
SIWFPLQRKIAA | 0.00746 | 727 | 0.026 | 3115
ALVTQHVNVY |  |  | 0.00162 | 193
GDLRGNVCMWL | 0.00021 | 20 |  | 
TIRFTNQNKIAF | 0.038 | 3740 | 0.095 | 11292

Sequence | Library fraction (TLR10 selection pulldown (+)) | Raw reads (TLR10 selection pulldown (+)) | Library fraction (TLR10 selection pulldown (-)) | Raw reads (TLR10 selection pulldown (-))
TIKFPRLQMLAI | 0.00066 | 64 |  | 
SNIVWCGQGIIG | 0.168 | 16419 | 0.077 | 9156
AVEFSNAVVM |  |  | 0.00055 | 66
IGRLYIKSS | 0.003 | 304 | 0.00136 | 162
SVMNVFGGNAAT | 0.00029 | 28 |  | 
RIETRCYVLH |  |  | 0.0006 | 72
TMQFPLQRRMAI | 0.00468 | 456 | 0.002 | 241
ALRFPHLGMMAF | 0.00026 | 25 |  | 
TMCFTFSKMVAF |  |  | 0.00058 | 69
SHYFAFQKKLAF |  |  | 0.00125 | 149
TILFSLQNVRAF | 0.00137 | 134 | 0.0033 | 394
IGNVCIRSS |  |  | 0.0008 | 96
ALLIKQTNMLYC | 0.023 | 2215 | 0.018 | 2188
SMEFVKIPLVIH | 0.00041 | 40 |  | 
TLELKAIVFH |  |  | 0.00044 | 52
SSYVYHKQRIRG | 0.00022 | 21 |  | 
VGQVLVKSS | 0.00061 | 59 | 0.00086 | 102
STIVFKHQQISG | 0.00018 | 18 |  | 
RSPIPSWG |  |  | 0.00043 | 51
MIRMDRLRVL | 0.00023 | 22 |  | 
CNPYRGNIGW | 0.006 | 614 | 0.016 | 1871
AIYNRYGGNIAS |  |  | 0.00153 | 182
